We go through two molecules from article PMC10368727, “Sequestration of histidine kinases by non-cognate response regulators establishes a threshold level of stimulation for bacterial two-component signaling” (Nature Communications, 2023).

This test has as its target T1, phosphorylated, GFP-tagged HK MtrB (cytosolic catalytic domain) (M. tuberculosis, UniProt P9WGK9 234-567).
T1 construct: also called MtrB~P; P~MtrB-GFP
T1 sequence: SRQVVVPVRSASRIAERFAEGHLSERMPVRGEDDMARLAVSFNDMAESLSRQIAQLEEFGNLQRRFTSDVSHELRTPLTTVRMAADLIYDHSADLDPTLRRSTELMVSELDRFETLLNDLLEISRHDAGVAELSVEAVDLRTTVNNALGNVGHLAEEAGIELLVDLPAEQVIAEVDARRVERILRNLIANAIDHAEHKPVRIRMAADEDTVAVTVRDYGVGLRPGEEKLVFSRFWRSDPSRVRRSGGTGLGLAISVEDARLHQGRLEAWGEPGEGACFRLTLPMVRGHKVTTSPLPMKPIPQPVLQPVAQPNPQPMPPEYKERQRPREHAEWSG
The experiment in a line: MST. The following applies: both partners purified.

B1: NarL^D61N, phosphor-defective mutant of NarL (natural protein)
chain: MSNPQPEKVRVVVGDDHPLFREGVVRALSLSGSVNVVGEADDGAAALELIKAHLPDVALLNYRMPGMDGAQVAAAVRSYELPTRVLLISAHDEPAIVYQALQQGAAGFLLKDSTRTEIVKAVLDCAKGRDVVAPSLVGGLAGEIRQRAAPVAPVLSAREREVLNRIACGQSIPAIAAELYVAPSTVKTHVQRLYEKLGVSDRAAAVAEAMRQRLLD
With B1, the Kd turned out to be 78 ± 13 nM.

B2: MtrA^D56N, phosphor-defective mutant of MtrA (natural protein)
chain: MDTMRQRILVVDDDASLAEMLTIVLRGEGFDTAVIGDGTQALTAVRELRPDLVLLNLMLPGMNGIDVCRVLRADSGVPIVMLTAKTDTVDVVLGLESGADDYIMKPFKPKELVARVRARLRRNDDEPAEMLSIADVEIDVPAHKVTRNGEQISLTPLEFDLLVALARKPRQVFTRDVLLEQVWGYRHPADTRLVNVHVQRLRAKVEKDPENPTVVLTVRGVGYKAGPP
On to B2, for which the Kd came to 371 ± 130 nM.
